Laboratory results reported in publication PMC11519228, “Sugar alcohol degradation in Archaea: uptake and degradation of mannitol and sorbitol in Haloarcula hispanica” (Extremophiles, 2024).

How the values were obtained:
[1] = target: ketohexokinase (KHK) from Haloarcula marismortui (Haloarcula marismortui); test: SEC; native molecular mass on a size exclusion column (superdex HiLoad 16/600 200 pg) calibrated with proteins from the HMW and LMW kits; purified His-tagged enzyme
[2] = target: the molecule itself; test: as above
[3] = substrate: Nc1ncnc2c1ncn2[C@@H]1O[C@H](COP(=O)(O)OP(=O)(O)OP(=O)(O)O)[C@@H](O)[C@H]1O; test: coupled pyruvate kinase / lactate dehydrogenase photometric assay, Michaelis-Menten fit; format: biochemical, Haloarcula hispanica; conditions: 50 mM Tris-HCl, 1.5 M KCl, pH 7.5, 4 mM fructose-1-phosphate, 10 mM MgCl2, 37 °C
[4] = substrate: OC[C@@H](O)[C@@H](O)[C@H](O)[C@@H](O)CO; test: photometric NADH assay, Michaelis-Menten fit; format: biochemical, Haloarcula hispanica; conditions: 50 mM Tris-HCl, 1.5 M KCl, 37 °C
[5] = substrate: NC(=O)c1ccc[n+]([C@@H]2O[C@H](COP(=O)(O)OP(=O)(O)OC[C@H]3O[C@@H](n4cnc5c(N)ncnc54)[C@H](O)[C@@H]3O)[C@@H](O)[C@H]2O)c1; test: photometric NADH assay, Michaelis-Menten fit; format: biochemical, Haloarcula hispanica; conditions: 50 mM Tris-HCl, 1.5 M KCl, 37 °C, varied: cofactor
[6] = substrate: OC[C@@H](O)[C@@H](O)[C@H](O)[C@H](O)CO; test: photometric NADH assay, Michaelis-Menten fit; format: biochemical, Haloarcula hispanica; conditions: 50 mM Tris-HCl, 1.5 M KCl, pH 7.5, 1 mM MnCl2, 1 mM NAD+, 37 °C
[7] = substrate: Nc1ncnc2c1ncn2[C@@H]1O[C@H](COP(=O)(O)OP(=O)(O)OP(=O)(O)O)[C@@H](O)[C@H]1O; test: coupled pyruvate kinase / lactate dehydrogenase photometric assay, Michaelis-Menten fit; format: biochemical, Haloarcula marismortui; conditions: 100 mM Tris-HCl, 1.5 M KCl, pH 7.5, 20 mM fructose, 10 mM MgCl2, 37 °C

Q: “ketohexokinase (KHK) from Haloarcula marismortui (enzyme)” was tested. Which stoichiometry N [1] did it give?
A: 2

B1: fructose-1-phosphate kinase (1-PFK) from Haloarcula hispanica (enzyme, UniProt G0HX83 1-302, looked up)
chain: MIVTVTYNPAVDQTIQFDEQMAPDRVMRADEAQFDAGGKGINAAQFLTAMDRPCVATGLLGGFTGSFIRETLQDDGVETAFVDVDGTTRLNTTAIAAAGEYKLNQAGPTVGESVVDALLEQVRAQSPDRVLIGGSLPPGLSPNAIDRIAAGGDWETIVDTGGDVLRELDAQYGLCKPNRAELGDATGADVSTVEGCADAADAFRDRGFDRVLASLGADGAVLVGDTGRLYAEALDINVVDTVGAGDALLSGVLSAWEAGADDETALRTGVAVSSQVVQRAGTAVPDLNDIGSLRDGVTVRQL
notes: fructose-1-phosphate kinase of Haloarcula hispanica, gene fruK (HAH_1077), amplified from genomic DNA; subunits of 31.2 kDa; The gene was cloned into pTA963 with 6 x CAC fused to its 5' end (N-terminal 6 x His tag); also called F1P kinase; fruK; not shown: His6, N-terminal, kept
Q: What does the source list for B1?
A: stoichiometry N [2]: 2; Km [3]: 60 ± 4 µM

B2: SorDH (Haloarcula hispanica ATCC 33960) (protein)
chain: MRTAVLVEPNEFELEDRPRPSPGPDDVLVAVRDVGICGSDVHYYEHGRIGDYVVEDPLVLGHESAGEVVEVGENVTHHEPGDRVALEPGVPCRRCAHCKRGDYHLCEEVTFMATPPHDGAFTEYVSWPADFAYTLPEAVSTAEGALCEPLSVGIHACRRGSVGTGDTVLITGAGPIGLMVLEAARAAGATDVILTDVVDEKLTFAEERGADLTVNVTETDLDAAVAEYTDGVGADVVVEASGAEPSIKSTIDVVRRGGTVVLVGLASEAEVPIDVLELIDNEVDVHGSFRYKNTYDAAVDLLADGEVDVEGIIDFESELEDIDDAFRRAMEPTVVKGMISLDS
notes: full-length gene from genomic DNA, N-terminal 6xHis tag, expressed in Haloferax volcanii H1209 (pTA963), Ni-NTA and size exclusion
Q: B2 was tested. Which Km ([4]; pH 7.5, 1 mM MnCl2, 2 mM NAD+) did it give?
A: 14700 ± 7800 µM

Q: And the Km ([5]; pH 7.5, 1 mM MnCl2, 15 mM sorbitol)?
A: 1200 ± 350 µM

B3: MtlDH (Haloarcula hispanica ATCC 33960) (protein)
chain: MRASTLTDVGEITVEERDRPDPADDEVLVQVGACSVCMTDYHMYHGTFAAETPLVLGHEGAGTVAEVGADVEGFAVGDRVAINPTVPCNACSYCKKGETHLCENNTSIGGAGDTILDGAFAEYVRVPAINVEDIGEMSFERAALAEPLACCVHGVEQTDIKPGDSVGIIGAGPIGLLLLQAFRNAGAAPIVVSELDDERRELAADLGADAVVDPNEEDPEEAICAAAGGPVDVGAEAIGLVPTIKQANAVTASGGSTLIFGVPDQEATMEISPFDVFFDEVDYRGSFSLTTEDFERAITLLRHERIDAETLITERIGLDDLPTAFERMGNAEGLKKVVVPGDSE
notes: as for B2
Q: What does the source list for B3?
A: Km ([4]; pH 7.5, 1 mM MnCl2, 1 mM NAD+, sorbitol up to 100 mM): 27600 ± 2660 µM; Km ([5]; pH 7.5, 1 mM MnCl2, 10 mM mannitol): 420 ± 30 µM; Km [6]: 2600 ± 270 µM

B4: KHK (Haloarcula marismortui ATCC 43049) (protein)
chain: MDEETRRAVATADEALPTSDALPDAIDTGRVVFGFDGYLDRVREVVADRIDPESHERLATLESFGDRIDRSVAADSSLSFEWLQQGSRTGGHTSHLARAFGGWSFDPVMVGMYGDPVHDAFETEFGEYELHSLGEPGVTDAVEFDDGKLMLTEIGDTMSLDWAELDTAFGHDRLAEKLDGASLLGTGYWSETPDLPTVFDGLRTLWDGIDDPPETVLVDPGDVRKLDADRLRAGREAIGRLDEVTDVVVTSNRAETGVLADAYAGDAERSFADDAEAVFEALEPTWFVGHGVEQSVVVTAAGTDSVAVPSVSDPELTTSSGDHFNAGLGLARIADLSPAAAVVVGNAVAGYFVRTADQPSLADVRAFVDEYLEKF
notes: full-length gene from genomic DNA, N-terminal 6xHis tag, expressed in Haloferax volcanii H1209 (pTA963)
Q: For B4, which Km [7] is on record?
A: 1290 ± 120 µM
